From publication PMC9723961 (Journal for Immunotherapy of Cancer, 2022) come the findings set out here.

The target in data set [1] is T1, Recombinant CD73-His (human, UniProt P21589). Briefly: cryo-EM structure.
Data set [2] addresses T1, Recombinant CD73-His. Briefly: BLI. A general note: In BLI a coated tip is dipped into the sample, and binding shifts an interference pattern.
The data set “cryo-EM structure” concerns the molecule itself. Briefly: cryo-EM structure.

B1: Mupadolimab (antibody, V domains shown)
VH: QVQLVQSGAEVEKPGASVKVSCKASGYTFTSYWITWVRQAPGQGLEWMGDIYPGSGNTNYNEKFKTRVTITADKSTSTAYMELSSLRSEDTAVYYCAKEGGLTTEDYALDYWGQGTLVTVSS
VL: EIVLTQSPATLSLSPGERATLSCRASKNVSTSGYSYMHWYQQKPGQAPRLLIYLASNLESGIPPRFSGSGYGTDFTLTINNIESEDAAYYFCQHSRELPFTFGQGTKVEIK
Turning to B1, the “stoichiometry N” value with Recombinant CD73-His [1] is 2 antibodies per CD73 homodimer. In addition, in the data set with Recombinant CD73-His [2], the Kd came out at 0.2 nM.

B2: Recombinant CD73-His (enzyme, human, UniProt P21589 27-549, looked up)
chain: WELTILHTNDVHSRLEQTSEDSSKCVNASRCMGGVARLFTKVQQIRRAEPNVLLLDAGDQYQGTIWFTVYKGAEVAHFMNALRYDAMALGNHEFDNGVEGLIEPLLKEAKFPILSANIKAKGPLASQISGLYLPYKVLPVGDEVVGIVGYTSKETPFLSNPGTNLVFEDEITALQPEVDKLKTLNVNKIIALGHSGFEMDKLIAQKVRGVDVVVGGHSNTFLYTGNPPSKEVPAGKYPFIVTSDDGRKVPVVQAYAFGKYLGYLKIEFDERGNVISSHGNPILLNSSIPEDPSIKADINKWRIKLDNYSTQELGKTIVYLDGSSQSCRFRECNMGNLICDAMINNNLRHTDEMFWNHVSMCILNGGGIRSPIDERNNGTITWENLAAVLPFGGTFDLVQLKGSTLKKAFEHSVHRYGQSTGEFLQVGGIHVVYDLSRKPGDRVVKLDVLCTKCRVPSYDPLKMDEVYKVILPNFLANGGDGFQMIKDELLRHDSGDQDINVVSTYISKMKVIYPAVEGRIKFS
For B2, the binding result in the data set “cryo-EM structure” was “binds”.

What is called Kd is the constant that tells how readily two partners part at equilibrium.
